Test results: patent publication US20050032692A1

Experiments:
[1] = target: CBP protein (CREB Binding Protein); test: cell-based or functional assay
Cdk1 protein = Cdk1 protein (UniProt P06493); test: cell-based or functional assay
Chain of Cdk1 protein (P06493 whole entry): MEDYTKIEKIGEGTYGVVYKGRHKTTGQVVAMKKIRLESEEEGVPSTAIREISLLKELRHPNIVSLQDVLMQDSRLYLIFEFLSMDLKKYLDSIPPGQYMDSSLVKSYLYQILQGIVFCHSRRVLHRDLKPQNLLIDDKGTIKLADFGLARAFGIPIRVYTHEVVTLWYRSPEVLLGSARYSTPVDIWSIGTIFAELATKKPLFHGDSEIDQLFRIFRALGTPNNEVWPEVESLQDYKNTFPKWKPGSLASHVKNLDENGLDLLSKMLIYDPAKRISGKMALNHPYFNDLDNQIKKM

FoxM1B transcriptional activity (6x FoxM1B TATA-luciferase reporter, U2OS cells) (% stimulation) [1] | FoxM1B transcriptional activity (6x FoxM1B TATA-luciferase reporter, U2OS cells) (Cdk1 protein) [% reduction] | Substance
50 |  | T7-FoxM1B WT protein (CMV T7-FoxM1B WT) (from UniProt Q08050 1-763)
 | 80 | CMV T7-FoxM1B L641A mutant protein (from UniProt Q08050 1-763)
